This note sets out measurements from patent US20240117018A1.

Holding throughout (assay): cell-based or functional assay
For test [1], the target named is HIV-1 Env pseudovirus 620345.c01 (HIV-1).
Test [2] concerns the target HIV-1 Env pseudovirus R2184.c04 (HIV-1).
The target of test [3] is HIV-1 Env pseudovirus 89-F1_2_25 (HIV-1).
Test [4] concerns the target HIV-1 Env pseudovirus 6480.v4.c25 (HIV-1).
Test [5] addresses HIV-1 Env pseudovirus 231965.c01 (HIV-1).
Test [6] has as its target HIV-1 Env pseudovirus C1080.c03 (HIV-1).
Test [7] concerns the target HIV-1 Env pseudovirus P0402_c2_11 (HIV-1).
Test [8] concerns the target HIV-1 Env pseudovirus T255-34 (HIV-1).
In test [9] the target is HIV-1 Env pseudovirus 231966.c02 (HIV-1).
Test [10] concerns the target Env of HIV-1 pseudovirus Q842.d12 (HIV-1).
For test [11], the target named is Env of HIV-1 pseudovirus TRJO4551.58 (HIV-1).
Test [12] has as its target Env of HIV-1 pseudovirus 1394C9G1(Rev-) (HIV-1).
Test [13] has as its target Env of HIV-1 pseudovirus Ce0682_E4 (HIV-1).
In test [14] the target is Env of HIV-1 pseudovirus WITO4160.33 (HIV-1).
Test [15] deals with Env of HIV-1 pseudovirus PVO.4 (HIV-1).
Test [16] has as its target Env of HIV-1 pseudovirus Ce703010054_2A2 (HIV-1).
In test [17] the target is Env of HIV-1 pseudovirus REJO4541.67 (HIV-1).
Test [18] concerns the target Env of HIV-1 pseudovirus CNE17 (HIV-1).
The target of test [19] is Env of HIV-1 pseudovirus Q769.d22 (HIV-1).
The target of test [20] is Env of HIV-1 pseudovirus 62357_14_D3_4589 (HIV-1).
The target of test [21] is Env of HIV-1 pseudovirus 0260.v5.c36 (HIV-1).
Test [22] has as its target Env of HIV-1 pseudovirus 191084 B7-19 (HIV-1).

On to 3BNC117 (antibody), for which the IC50 (Titer in TZM.bl cells) in test [1] was more than 15 µg/mL; in test [2], 0.03 µg/mL; in [3] it was more than 50 µg/mL; in [4], 0.01 µg/mL; in test [5] it was 0.05 µg/mL; in test [6] it was 0.25 µg/mL. The IC50 (Titer in TZM.bl cells) in test [7] was 0.06 µg/mL; in test [8], 0.02 µg/mL; in test [9], 0.29 µg/mL. Moreover, the IC80 (Titer in TZM.bl cells) in [1] is more than 15 µg/mL; in test [2], 0.1 µg/mL; in test [3] it was more than 50 µg/mL; in test [4], 0.04 µg/mL; in [5], 0.22 µg/mL; in [6] it was 1.73 µg/mL. Moreover, the figures for the IC80 (Titer in TZM.bl cells) in [7], in test [8] and in test [9] were 0.38 µg/mL, 0.14 µg/mL and 2.37 µg/mL, respectively.
In the case of 8ANC195 (antibody), the IC50 (Titer in TZM.bl cells) was more than 50 µg/mL in test [1]; 0.09 µg/mL in test [2]; more than 50 µg/mL in test [3]; 0.16 µg/mL in [4]; 2.36 µg/mL in test [5]; 0.17 µg/mL in test [6]. Further, the results for the IC50 (Titer in TZM.bl cells) in test [7], in [8] and in test [9] were 0.62 µg/mL, 0.54 µg/mL and 0.54 µg/mL, respectively. The IC80 (Titer in TZM.bl cells) was more than 50 µg/mL in test [1]; 13 µg/mL in [2]; more than 50 µg/mL in test [3]; 1.13 µg/mL in test [4]; 2.36 µg/mL in [5]; 1.12 µg/mL in [6]. In addition, the results for the IC80 (Titer in TZM.bl cells) in [7], in test [8] and in [9] were 6.35 µg/mL, 8.09 µg/mL and 2.98 µg/mL, respectively.
As a reminder, the IC50 is the midpoint of a concentration-inhibition curve. By IC80 is commonly meant the concentration at which the effect reaches the 80% level. Read a low IC80 as greater potency. With 10-1074 (antibody), the 50% inhibitory concentration (IC50) was more than 50 µg/mL in test [10]; 0.17 µg/mL in test [11]; 0.05 µg/mL in [12]; more than 50 µg/mL in [13]; 0.185 µg/mL in test [14]; 0.074 µg/mL in test [15]. In addition, the IC50 in test [16] was more than 50 µg/mL; in [17], more than 50 µg/mL; in [18], 2.69 µg/mL; in [19] it was more than 50 µg/mL; in [20], more than 50 µg/mL; in test [21], 0.099 µg/mL. For the same substance, the IC50 in test [22] was 0.032 µg/mL. Further, the 80% effect concentration (IC80) in test [10] is more than 50 µg/mL; in [11], 0.634 µg/mL; in [12] it was 0.191 µg/mL; in [13] it was more than 50 µg/mL; in test [14], 2.11 µg/mL; in [15] it was 0.36 µg/mL. Also, the IC80 was more than 50 µg/mL in test [16]; more than 50 µg/mL in test [17]; 13.3 µg/mL in test [18]; more than 50 µg/mL in test [19]; more than 50 µg/mL in [20]; 0.16 µg/mL in [21]. In addition, the IC80 in test [22] was determined as 0.128 µg/mL.
With 10E8 (antibody), the half-inhibitory concentration (IC50) in [10] amounted to 4.19 µg/mL; in test [11], 0.475 µg/mL; in test [12], 0.963 µg/mL; in test [13] it was 1.22 µg/mL; in test [14], 0.094 µg/mL; in test [15], 0.747 µg/mL. For the same substance, the IC50 in test [16] was 2.3 µg/mL; in [17], 0.203 µg/mL; in test [18] it was 1.11 µg/mL; in [19] it was 1.67 µg/mL; in test [20], 0.119 µg/mL; in [21], more than 10 µg/mL. The substance also showed an IC50 in [22] of 5.16 µg/mL. In addition, the IC80 is more than 10 µg/mL in test [10]; 4.78 µg/mL in test [11]; 5.33 µg/mL in test [12]; 7.71 µg/mL in test [13]; 1.23 µg/mL in test [14]; more than 10 µg/mL in [15]. The IC80 is 8.58 µg/mL in test [16]; 1.69 µg/mL in test [17]; 5.25 µg/mL in test [18]; 10 µg/mL in test [19]; 1.06 µg/mL in test [20]; more than 10 µg/mL in test [21]. In test [22], the IC80 was more than 10 µg/mL.
As for PG9 (antibody), the 50% inhibitory concentration (IC50) stood at 0.023 µg/mL in [10]; 0.503 µg/mL in test [11]; 0.029 µg/mL in test [12]; 0.196 µg/mL in test [13]; 0.01 µg/mL in test [14]; 10.6 µg/mL in [15]. Also, the IC50 in test [16] was 0.022 µg/mL; in [17] it was 0.012 µg/mL; in [18], 0.21 µg/mL; in test [19], 0.025 µg/mL; in test [20], more than 50 µg/mL; in test [21] it was 1.69 µg/mL. Also, in test [22], the IC50 came to 0.043 µg/mL. For the same substance, the 80% effect concentration (IC80) in test [10] is 0.081 µg/mL; in [11] it was 4.06 µg/mL; in test [12], 0.114 µg/mL; in [13], 0.698 µg/mL; in test [14] it was 0.037 µg/mL; in test [15] it was more than 50 µg/mL. For the same substance, the IC80 in test [16] was 0.103 µg/mL; in test [17], 0.163 µg/mL; in test [18] it was 0.484 µg/mL; in [19], 0.068 µg/mL; in test [20] it was more than 50 µg/mL; in [21], 9 µg/mL. In [22], this substance registered an IC80 of 0.202 µg/mL.
As to PG16 (antibody), the half-inhibitory concentration (IC50) worked out at 0.032 µg/mL in test [10]; 1.01 µg/mL in test [11]; 0.008 µg/mL in [12]; 0.026 µg/mL in [13]; 0.002 µg/mL in test [14]; 15.3 µg/mL in test [15]. For the same substance, the IC50 in [16] was 0.008 µg/mL; in test [17], 0.039 µg/mL; in [18], 0.029 µg/mL; in [19], 0.005 µg/mL; in test [20], more than 50 µg/mL; in test [21], 1.54 µg/mL. This substance also yielded an IC50 in test [22] of 0.024 µg/mL. The IC80 in [10] was more than 0.25 µg/mL; in test [11], 24.5 µg/mL; in test [12] it was 0.056 µg/mL; in test [13] it was 0.202 µg/mL; in [14] it was 0.012 µg/mL; in [15], more than 50 µg/mL. The concentration for an effect of 80% (IC80) in test [16] was 0.053 µg/mL; in test [17], 13.4 µg/mL; in test [18] it was 0.132 µg/mL; in [19], 0.018 µg/mL; in test [20], more than 50 µg/mL; in [21], 36.1 µg/mL. In addition, the IC80 in [22] turned out to be 0.238 µg/mL.
Consider VRC07 (antibody), for which the IC50 (Titer in TZM.bl cells) in test [1] is more than 50 µg/mL; in test [2] it was 0.02 µg/mL; in test [3] it was more than 50 µg/mL; in test [4], 0.032 µg/mL; in test [5] it was 0.085 µg/mL; in [6] it was 2.03 µg/mL. In addition, the IC50 (Titer in TZM.bl cells) in test [7] turned out to be 0.085 µg/mL; in test [8], 0.227 µg/mL; in test [9], 0.105 µg/mL. Moreover, the IC80 (Titer in TZM.bl cells) in [1] is more than 50 µg/mL; in test [2] it was 0.104 µg/mL; in [3], more than 50 µg/mL; in test [4] it was 0.134 µg/mL; in [5], 0.263 µg/mL; in test [6], 8.25 µg/mL. In addition, the IC80 (Titer in TZM.bl cells) in test [7] stood at 0.422 µg/mL; in [8], 0.987 µg/mL; in [9], 0.471 µg/mL.
